Reference: US20090203610A1, “METHODS OF TREATING OBESITY OR DIABETES USING NT-4/5” (RINAT NEUROSCIENCE CORPORATION, priority 2004, published 2009)

Legend:
human TrkB = target: T1, human TrkB (Homo sapiens, UniProt Q16620); assay: Receptor tyrosine phosphorylation (KIRA) in TrkB expressing cell line; type: cell-based; details: for functional binding with TrkB in the KIRA assay: single cysteine mutants
T1 construct: expressed in transfected cells
From the text: Method of making pegylated NT-4/5 (S50C): The native form of NT-4/5 used in this study was produced according to the method described in U.S. Pat. No. 6,184,360. A site-directed pegylated NT-4/5 was also produced. The structure of NT-4/5 in complex with domain 5 of TrkB was examined to find amino acid side chains that would be surface available and unlikely to interfere with natural disulfide bonds and also unlikely to interfere in either the interactions between the monomer subunits of NT-4/5 or the TrkB domain 5 to create a PEG attaching site. […] […] Mutant proteins were expressed in E. coli, solubilized, extracted, purified and refolded as the native NT-4/5. To pegylate the refolded NT4-S50C, NT4-Q105C, and NT-4-E67C, first a mild reduction with 0.1 mM DTT (dithiothreitol) was performed. Excess DTT was removed by dialysis against 50 mM sodium acetate at pH 6, then a 5 molar excess of mPEG-maleimide (M. W. of 10,000 Da, SunBio, Inc., South Korea) was incubated with the protein at 37° C. for several days with gentle agitation. Pegylated protein, non-pegylated protein and unreacted PEG were separated via ion exchange or size exclusion chromatography.
(§1) Assays of TrkB specific activation by pegylated NT-4/5: Stable cell lines expressing human TrkA, TrkB or TrkC were used to determine the functional activity, i.e. receptor phosphorylation, of NT-4/5 and pegylated NT-4/5 as previously described (Sadick et al. Experimental Cell Research 234: 354-361, 1997).
as §1, with “and different forms of” for “and”

[1] = test system: NONcNZO-10 polygenic obese mice; assay: Food intake in NONcNZO-10 mice (Example 4, Table 20); type: in vivo; set-up: unit not given here; details: NONcNZO-10 mice, mean
From the text: (§2) Test animals: 40 male NONcNZO-10 polygenic obese mice obtained from Jackson Laboratory at 10 weeks of age weighing in the range of 26-32 g were used in this study.
(§3) Administration of NT-4/5: NT-4/5 was produced in E. coli as descried in U.S. Pat. No. 6,184,360. The mice were divided into 6 groups of equivalent body weight and baseline blood glucose distribution (6-7 mice per group). […] A “paired-fed” control group received daily injection of vehicle, but were only fed with the same amount of food the 3 mg/kg group consumed the previous day. On the day when the treatment started (day 1), a baseline blood samples were collected for measuring glucose and triglyceride. Triglyceride level was measured on day 10. At the end of the study (day 12), a terminal blood sample was collected to determine glucose, triglyceride, electrolytes (Na, K, Cl), testoterone, corticosterone, thyroid hormone (total T4) and thyroid stimulating hormone (TSH) levels. Electrolytes, free testosterone, T4 and TSH levels of serum samples were measured by AniLytics (Gaithesburg, M.D) according to the standard protocols employed by the vendor. Other analytes were measured as described above. Body weight, food intake were monitored 5 days per week through out the entire study. Daily water intake was measured from day 5 through day 7.

[2] = test system: NONcNZO-10 polygenic obese mice; assay: Non-fasting blood triglyceride level in NONcNZO-10 mice (Example 4, Table 18); type: in vivo; set-up: non-fasting blood triglyceride level: unit not given here; details: NONcNZO-10 mice, mean
From the text: as §2, §3

[3] = test system: NONcNZO-10 polygenic obese mice; assay: Body weight in NONcNZO-10 mice (Example 4, Table 19); type: in vivo; set-up: body weight: unit not given here; details: NONcNZO-10 mice, mean
From the text: as §2, §3

T1 sequence (Q16620 32-822): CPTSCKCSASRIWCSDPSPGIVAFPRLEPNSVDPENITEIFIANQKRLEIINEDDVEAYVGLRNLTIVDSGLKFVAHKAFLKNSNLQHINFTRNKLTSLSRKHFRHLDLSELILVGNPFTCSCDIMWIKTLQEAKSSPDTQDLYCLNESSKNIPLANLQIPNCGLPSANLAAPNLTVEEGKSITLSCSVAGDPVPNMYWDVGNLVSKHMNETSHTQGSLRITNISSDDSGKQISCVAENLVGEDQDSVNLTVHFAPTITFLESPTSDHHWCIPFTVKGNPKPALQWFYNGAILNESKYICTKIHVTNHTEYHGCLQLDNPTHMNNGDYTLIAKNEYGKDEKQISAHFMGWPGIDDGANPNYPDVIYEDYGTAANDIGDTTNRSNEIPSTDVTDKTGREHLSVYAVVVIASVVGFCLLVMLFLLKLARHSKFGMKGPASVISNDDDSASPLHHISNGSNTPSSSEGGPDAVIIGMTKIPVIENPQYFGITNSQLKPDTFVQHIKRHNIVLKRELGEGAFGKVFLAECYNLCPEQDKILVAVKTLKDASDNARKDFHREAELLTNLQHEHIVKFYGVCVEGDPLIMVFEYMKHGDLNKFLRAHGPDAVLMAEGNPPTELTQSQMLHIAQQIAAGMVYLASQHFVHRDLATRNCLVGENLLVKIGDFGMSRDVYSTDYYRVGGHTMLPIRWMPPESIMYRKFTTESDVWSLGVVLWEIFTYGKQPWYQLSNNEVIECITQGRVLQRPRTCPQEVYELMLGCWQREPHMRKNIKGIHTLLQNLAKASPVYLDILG

B1: S50C: single cysteine mutant of mature human NT-4/5, serine 50 to cysteine (protein)
chain: GVSETAPASRRGELAVCDAVSGWVTDRRTAVDLRGREVEVLGEVPAAGGCPLRQYFFETRCKADNAEEGGPGAGGGGCRGVDRRHWVSECKAKQSYVRALTADAQGRVGWRWIRIDTACVCTLLSRTGRA
Q: With B1 as the molecule, how does the “functional binding with TrkB in the KIRA assay” value (from here on “functional binding with TrkB”) (human TrkB) read?
A: found possible

B2: Q105C: single cysteine mutant of mature human NT-4/5 at position 105 (protein)
chain: GVSETAPASRRGELAVCDAVSGWVTDRRTAVDLRGREVEVLGEVPAAGGSPLRQYFFETRCKADNAEEGGPGAGGGGCRGVDRRHWVSECKAKQSYVRALTADACGRVGWRWIRIDTACVCTLLSRTGRA
Q: B2 was tested. Which “functional binding with TrkB” value (human TrkB) did it give?
A: found possible

B3: E67C: single cysteine mutant of mature human NT-4/5, glutamic acid 67 to cysteine (protein)
chain: GVSETAPASRRGELAVCDAVSGWVTDRRTAVDLRGREVEVLGEVPAAGGSPLRQYFFETRCKADNACEGGPGAGGGGCRGVDRRHWVSECKAKQSYVRALTADAQGRVGWRWIRIDTACVCTLLSRTGRA
Q: For B3, which “functional binding with TrkB” value (human TrkB) is on record?
A: found possible

B4: Pegylated NT-4/5(E67C): NT-4/5 with glutamic acid 67 changed to cysteine, pegylated with mPEG-maleimide (10,000 Da) (conjugate)
chain: GVSETAPASRRGELAVCDAVSGWVTDRRTAVDLRGREVEVLGEVPAAGGSPLRQYFFETRCKADNACEGGPGAGGGGCRGVDRRHWVSECKAKQSYVRALTADAQGRVGWRWIRIDTACVCTLLSRTGRA
Q: For B4, which “receptor tyrosine phosphorylation of TrkB-expressing cell line” value (human TrkB) is on record?
A: active in activating TrkB receptor

B5: NT4 (protein)
chain: GVSETAPASRRGELAVCDAVSGWVTDRRTAVDLRGREVEVLGEVPAAGGSPLRQYFFETRCKADNAEEGGPGAGGGGCRGVDRRHWVSECKAKQSYVRALTADAQGRVGWRWIRIDTACVCTLLSRTGRA
Q: How did the food intake ([1]; 0.1 mg/kg s.c., Day 1) turn out when B5 was run?
A: 5.17

Q: What about the food intake ([1]; 0.1 mg/kg s.c., Day 2) of the same molecule?
A: 5.50

Q: And the food intake ([1]; 0.1 mg/kg s.c., Day 3)?
A: 5.83

Q: And the food intake ([1]; 0.1 mg/kg s.c., Day 4)?
A: 6.00

Q: What about the food intake ([1]; 0.1 mg/kg s.c., Day 5) of the same molecule?
A: 5.50

Q: And the food intake ([1]; 0.1 mg/kg s.c., Day 8)?
A: 4.50

Q: What about the food intake ([1]; 0.1 mg/kg s.c., Day 9) of the same molecule?
A: 4.83

Q: And the food intake ([1]; 0.1 mg/kg s.c., Day 10)?
A: 5.00

Q: What about the food intake ([1]; 0.3 mg/kg s.c., Day 1) of the same molecule?
A: 5.32

Q: What about the food intake ([1]; 0.3 mg/kg s.c., Day 2) of the same molecule?
A: 5.67

Q: What about the food intake ([1]; 0.3 mg/kg s.c., Day 3) of the same molecule?
A: 5.33

Q: And the food intake ([1]; 0.3 mg/kg s.c., Day 4)?
A: 5.67

Q: And the food intake ([1]; 0.3 mg/kg s.c., Day 5)?
A: 4.83

Q: And the food intake ([1]; 0.3 mg/kg s.c., Day 8)?
A: 4.33

Q: What about the food intake ([1]; 0.3 mg/kg s.c., Day 9) of the same molecule?
A: 4.50

Q: What about the food intake ([1]; 0.3 mg/kg s.c., Day 10) of the same molecule?
A: 4.67

Q: What about the food intake ([1]; 1 mg/kg s.c., Day 1) of the same molecule?
A: 5.07

Q: What about the food intake ([1]; 1 mg/kg s.c., Day 2) of the same molecule?
A: 5.43

Q: And the food intake ([1]; 1 mg/kg s.c., Day 3)?
A: 4.86

Q: What about the food intake ([1]; 1 mg/kg s.c., Day 4) of the same molecule?
A: 4.71

Q: What about the food intake ([1]; 1 mg/kg s.c., Day 5) of the same molecule?
A: 4.43

Q: What about the food intake ([1]; 1 mg/kg s.c., Day 8) of the same molecule?
A: 3.93

Q: What about the food intake ([1]; 1 mg/kg s.c., Day 9) of the same molecule?
A: 4.00

Q: And the food intake ([1]; 1 mg/kg s.c., Day 10)?
A: 4.14

Q: And the food intake ([1]; 3 mg/kg s.c., Day 1)?
A: 5.13

Q: What about the food intake ([1]; 3 mg/kg s.c., Day 2) of the same molecule?
A: 4.86

Q: And the food intake ([1]; 3 mg/kg s.c., Day 3)?
A: 4.29

Q: What about the food intake ([1]; 3 mg/kg s.c., Day 4) of the same molecule?
A: 4.29

Q: And the food intake ([1]; 3 mg/kg s.c., Day 5)?
A: 4.00

Q: And the food intake ([1]; 3 mg/kg s.c., Day 8)?
A: 3.86

Q: And the food intake ([1]; 3 mg/kg s.c., Day 9)?
A: 3.57

Q: What about the food intake ([1]; 3 mg/kg s.c., Day 10) of the same molecule?
A: 3.86

Q: And the “non-fasting blood triglyceride level” value ([2]; 0.1 mg/kg s.c. daily, Day 1 (baseline))?
A: 291.7

Q: And the “non-fasting blood triglyceride level” value ([2]; 0.1 mg/kg s.c. daily, Day 10)?
A: 172.7

Q: And the “non-fasting blood triglyceride level” value ([2]; 0.3 mg/kg s.c. daily, Day 1 (baseline))?
A: 279.3

Q: And the “non-fasting blood triglyceride level” value ([2]; 0.3 mg/kg s.c. daily, Day 10)?
A: 208.0

Q: And the “non-fasting blood triglyceride level” value ([2]; 1 mg/kg s.c. daily, Day 1 (baseline))?
A: 307.7

Q: What about the “non-fasting blood triglyceride level” value ([2]; 1 mg/kg s.c. daily, Day 10) of the same molecule?
A: 226.3

Q: And the “non-fasting blood triglyceride level” value ([2]; 3 mg/kg s.c. daily, Day 1 (baseline))?
A: 306.1

Q: What about the “non-fasting blood triglyceride level” value ([2]; 3 mg/kg s.c. daily, Day 10) of the same molecule?
A: 226.3

Q: What about the body weight ([3]; 0.1 mg/kg s.c., Day 1) of the same molecule?
A: 100.0

Q: And the body weight ([3]; 0.1 mg/kg s.c., Day 2)?
A: 97.7

Q: And the body weight ([3]; 0.1 mg/kg s.c., Day 3)?
A: 100.0

Q: What about the body weight ([3]; 0.1 mg/kg s.c., Day 4) of the same molecule?
A: 102.2

Q: What about the body weight ([3]; 0.1 mg/kg s.c., Day 5) of the same molecule?
A: 104.5

Q: What about the body weight ([3]; 0.1 mg/kg s.c., Day 8) of the same molecule?
A: 102.2

Q: What about the body weight ([3]; 0.1 mg/kg s.c., Day 9) of the same molecule?
A: 102.8

Q: And the body weight ([3]; 0.1 mg/kg s.c., Day 10)?
A: 103.3

Q: And the body weight ([3]; 0.1 mg/kg s.c., Day 11)?
A: 105.1

Q: What about the body weight ([3]; 0.3 mg/kg s.c., Day 1) of the same molecule?
A: 100.0

Q: And the body weight ([3]; 0.3 mg/kg s.c., Day 2)?
A: 98.3

Q: What about the body weight ([3]; 0.3 mg/kg s.c., Day 3) of the same molecule?
A: 98.9

Q: What about the body weight ([3]; 0.3 mg/kg s.c., Day 4) of the same molecule?
A: 100.6

Q: What about the body weight ([3]; 0.3 mg/kg s.c., Day 5) of the same molecule?
A: 101.8

Q: What about the body weight ([3]; 0.3 mg/kg s.c., Day 8) of the same molecule?
A: 101.2

Q: What about the body weight ([3]; 0.3 mg/kg s.c., Day 9) of the same molecule?
A: 102.4

Q: And the body weight ([3]; 0.3 mg/kg s.c., Day 10)?
A: 102.9

Q: What about the body weight ([3]; 0.3 mg/kg s.c., Day 11) of the same molecule?
A: 104.1

Q: And the body weight ([3]; 1 mg/kg s.c., Day 1)?
A: 100.0

Q: And the body weight ([3]; 1 mg/kg s.c., Day 2)?
A: 97.1

Q: What about the body weight ([3]; 1 mg/kg s.c., Day 3) of the same molecule?
A: 94.8

Q: And the body weight ([3]; 1 mg/kg s.c., Day 4)?
A: 98.2

Q: What about the body weight ([3]; 1 mg/kg s.c., Day 5) of the same molecule?
A: 99.2

Q: What about the body weight ([3]; 1 mg/kg s.c., Day 8) of the same molecule?
A: 97.7

Q: And the body weight ([3]; 1 mg/kg s.c., Day 9)?
A: 97.6

Q: And the body weight ([3]; 1 mg/kg s.c., Day 10)?
A: 97.6

Q: And the body weight ([3]; 1 mg/kg s.c., Day 11)?
A: 99.0

Q: And the body weight ([3]; 3 mg/kg s.c., Day 1)?
A: 100.0

Q: And the body weight ([3]; 3 mg/kg s.c., Day 2)?
A: 95.6

Q: What about the body weight ([3]; 3 mg/kg s.c., Day 3) of the same molecule?
A: 94.6

Q: What about the body weight ([3]; 3 mg/kg s.c., Day 4) of the same molecule?
A: 94.6

Q: And the body weight ([3]; 3 mg/kg s.c., Day 5)?
A: 94.6

Q: And the body weight ([3]; 3 mg/kg s.c., Day 8)?
A: 92.2

Q: And the body weight ([3]; 3 mg/kg s.c., Day 9)?
A: 92.2

Q: What about the body weight ([3]; 3 mg/kg s.c., Day 10) of the same molecule?
A: 92.7

Q: And the body weight ([3]; 3 mg/kg s.c., Day 11)?
A: 92.6
